# Results: US20180230232A1 (VIB VZW, published 2018)
# B1: NANOBODY 4A2 (Nb_4A2) (VHH)
# VHH: QVQLQESGGGLVQPGGSLRLSCAASGFTFETQYMTWVRQAPGKGPEYVSSINSGGTIKYYANSSVKGRFTISRDNAKNTLYLQMNNLRPEDTAIYYCQLGQWAGVGAASSRGQGTQVTVSS
# notes: from the llama library; purified from pHEN6; not shown: C-terminal his6-tag (pHEN6)
# B2: NANOBODY B9 (Nb_B9) (VHH)
# VHH: DVQLQESGGGSVQAGGSLRLSCAASEYTYGYCSMGWYRQAPGKERELVSTITSDGSTSYVDSVKGRFTISQDNAKNTVYLQMNSLKPEDTAKYYCYTKTCANKLGAKFISWGQGTQVTVSS
# notes: dromedary VHH; his-tagged from E. coli; HA-tagged periplasmic extract in the ELISA screen; also called VHH B9; not shown: C-terminal his6-tag (pHEN6)
# B3: NANOBODY 10C4 (Nb_10C4) (VHH)
# VHH: QVQLQESGGGSVQAGGFLRLSCAASGYTYSTCSMAWYRQAPGKERELVSSIRNDGSTAYADSVKGRFTISQDNAKNTVYLQMNSLKPEDTAMYYCNIRIGVGPGGTCSIYAPYWGEGTQVTVSS
# notes: from the dromedary libraries; purified from pHEN6; not shown: C-terminal his6-tag (pHEN6)
# How the values were obtained:
# [1] = biological target: T1, mouse BACE1 (mouse, UniProt P56818 46-457, limits assumed); assay: SPR (Biacore), pH 4.5
# T1 sequence (P56818 46-457 limits assumed): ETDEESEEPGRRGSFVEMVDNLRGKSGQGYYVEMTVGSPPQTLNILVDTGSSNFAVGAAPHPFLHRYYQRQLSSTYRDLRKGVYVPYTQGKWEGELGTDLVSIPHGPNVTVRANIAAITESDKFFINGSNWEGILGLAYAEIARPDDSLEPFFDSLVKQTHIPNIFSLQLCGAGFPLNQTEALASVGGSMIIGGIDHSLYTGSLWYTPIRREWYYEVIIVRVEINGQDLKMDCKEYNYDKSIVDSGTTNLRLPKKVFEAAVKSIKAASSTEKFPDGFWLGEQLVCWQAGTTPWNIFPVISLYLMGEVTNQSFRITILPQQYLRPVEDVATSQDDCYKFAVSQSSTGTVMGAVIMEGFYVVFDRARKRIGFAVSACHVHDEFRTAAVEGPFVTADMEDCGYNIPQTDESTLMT
# [2] = biological target: T1, mouse BACE1; assay: SPR (Biacore), pH 7.0
# [3] = biological target: T2, human BACE1 ectodomain (human, UniProt P56817 22-457); assay: SPR (Biacore), pH 7.0
# T2 construct: extracellular domain; also called the ectodomain of human BACE1
# T2 sequence (P56817 22-457): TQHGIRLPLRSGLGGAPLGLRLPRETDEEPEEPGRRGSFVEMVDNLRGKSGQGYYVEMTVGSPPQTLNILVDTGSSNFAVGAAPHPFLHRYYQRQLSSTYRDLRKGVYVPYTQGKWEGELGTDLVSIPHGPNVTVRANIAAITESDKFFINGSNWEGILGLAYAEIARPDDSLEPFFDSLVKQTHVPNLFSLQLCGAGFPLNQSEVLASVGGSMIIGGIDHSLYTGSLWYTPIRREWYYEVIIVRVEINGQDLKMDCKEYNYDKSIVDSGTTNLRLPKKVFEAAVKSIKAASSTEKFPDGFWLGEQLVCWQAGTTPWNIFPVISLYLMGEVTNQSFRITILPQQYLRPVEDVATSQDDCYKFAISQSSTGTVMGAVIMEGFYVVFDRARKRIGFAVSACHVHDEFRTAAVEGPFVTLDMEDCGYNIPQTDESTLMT
# [4] = biological target: T2, human BACE1 ectodomain; assay: SPR (Biacore), pH 4.5
# [5] = biological target: recombinant BACE1 of the cell-free enzymatic assays (FRET assay, MBP-ELISA) (human, UniProt P56817 46-460, limits assumed); assay: cell-based or functional assay
# Chain of recombinant BACE1 of the cell-free enzymatic assays (FRET assay, MBP-ELISA) (P56817 46-460 limits assumed): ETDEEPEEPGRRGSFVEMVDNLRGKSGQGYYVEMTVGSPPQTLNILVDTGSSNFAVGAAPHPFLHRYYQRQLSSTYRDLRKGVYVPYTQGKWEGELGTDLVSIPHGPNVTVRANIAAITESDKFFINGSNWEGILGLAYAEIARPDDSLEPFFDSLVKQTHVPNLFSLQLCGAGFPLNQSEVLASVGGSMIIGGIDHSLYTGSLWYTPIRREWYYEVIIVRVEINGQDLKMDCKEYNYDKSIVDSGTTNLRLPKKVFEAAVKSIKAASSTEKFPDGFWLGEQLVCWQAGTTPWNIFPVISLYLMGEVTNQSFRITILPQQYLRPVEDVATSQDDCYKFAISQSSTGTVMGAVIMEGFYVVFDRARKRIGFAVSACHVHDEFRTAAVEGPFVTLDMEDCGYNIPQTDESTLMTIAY
# [6] = biological target: BACE1 of primary cultured mouse neurons (mouse, UniProt P56818 46-501); assay: cell-based or functional assay
# Chain of BACE1 of primary cultured mouse neurons (P56818 46-501): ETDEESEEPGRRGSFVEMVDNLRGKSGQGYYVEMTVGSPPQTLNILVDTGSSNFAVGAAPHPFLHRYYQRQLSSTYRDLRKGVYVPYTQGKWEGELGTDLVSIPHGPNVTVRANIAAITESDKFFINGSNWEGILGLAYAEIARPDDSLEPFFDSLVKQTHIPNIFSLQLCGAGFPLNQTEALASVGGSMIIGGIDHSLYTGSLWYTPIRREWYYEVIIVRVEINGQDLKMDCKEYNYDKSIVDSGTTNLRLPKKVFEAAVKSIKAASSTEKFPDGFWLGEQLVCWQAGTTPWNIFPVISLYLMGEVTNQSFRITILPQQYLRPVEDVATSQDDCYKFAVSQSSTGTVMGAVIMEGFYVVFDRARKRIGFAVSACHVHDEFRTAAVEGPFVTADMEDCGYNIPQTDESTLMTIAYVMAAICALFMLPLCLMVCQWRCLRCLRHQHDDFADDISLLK
Binder,Kd [1] [nM],koff [1] [s⁻¹],kon [1] [M⁻¹ s⁻¹],Kd [2] [nM],koff [2] [s⁻¹],kon [2] [M⁻¹ s⁻¹],Kd [3] [nM],koff [3] [s⁻¹],kon [3] [M⁻¹ s⁻¹],Kd [4] [nM],koff [4] [s⁻¹],kon [4] [M⁻¹ s⁻¹],"IC50, FRET assay dose-response [5] [nM]",IC50 (CTFβ level) in the neuron assay [6] [nM],"EC50, FRET assay dose-response [5] [nM]"
B1,8.61,0.00216,251000,35.2,0.00581,165000,48.2,0.0231,479000,21.2,0.00841,397000,1200,–,–
B2,1.11,0.00118,1.06e+06,1.77,0.00089,502000,3.67,0.00098,267000,1.96,0.0013,662000,–,~500,4.1
B3,10,0.00988,984000,41.9,0.00797,190000,74.7,0.00792,106000,27.7,0.0125,451000,150,–,–
